Experimental data reported in IntAct's records for PubMed 26030876.

B1: Autophagy-related protein 101 (Homo sapiens), Q9BSB4 (parent)
chain: MNCRSEVLEVSVEGRQVEEAMLAVLHTVLLHRSTGKFHYKKEGTYSIGTVGTQDVDCDFIDFTYVRVSSEELDRALRKVVGEFKDALRNSGGDGLGQMSLEFYQKKKSRWPFSDECIPWEVWTVKVHVVALATEQERQICREKVGEKLCEKIINIVEVMNRHEYLPKMPTQSEVDNVFDTGLRDVQPYLYKISFQITDALGTSVTTTMRRLIKDTLAL
partner: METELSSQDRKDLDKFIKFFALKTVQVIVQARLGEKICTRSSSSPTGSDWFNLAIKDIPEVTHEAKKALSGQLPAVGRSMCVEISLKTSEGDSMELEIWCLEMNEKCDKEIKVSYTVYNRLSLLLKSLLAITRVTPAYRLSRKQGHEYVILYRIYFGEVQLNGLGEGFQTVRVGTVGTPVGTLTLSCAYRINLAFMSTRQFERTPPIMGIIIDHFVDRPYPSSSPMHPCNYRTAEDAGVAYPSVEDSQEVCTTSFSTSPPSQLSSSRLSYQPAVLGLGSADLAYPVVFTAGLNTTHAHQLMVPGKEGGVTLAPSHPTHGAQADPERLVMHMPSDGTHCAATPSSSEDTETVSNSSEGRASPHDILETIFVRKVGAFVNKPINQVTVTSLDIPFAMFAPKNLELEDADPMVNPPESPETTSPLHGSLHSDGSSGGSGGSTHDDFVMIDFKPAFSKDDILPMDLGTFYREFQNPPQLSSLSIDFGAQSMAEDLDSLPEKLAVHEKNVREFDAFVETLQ

Variants of: B1
Conditions: with atg13_mouse Atg13, Q91YI1

| Variant | effect of a mutation on the interaction |
| --- | --- |
| L30R;H31R | disrupting interaction strength |
| T63R | decreasing interaction strength |
